Test results: the supplement of paper PMC12042874
± gives the uncertainty stated by the source.

Test: amyloid nucleation score (Sup35N fusion, yeast selection) (log enrichment); library NNK1; higher = more nucleation; inactive = no reads after selection
Outline: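 The nucleation score equals the log enrichment of output over input reads from DiMSum, centred on the mode score of non-aggregating sequences. It was computed only for sequences with 100 or more input reads. The reads came from Illumina sequencing of plasmid inserts from psi-negative yeast expressing Sup35N fused to peptides of 20 random codons, induced with 100 μM copper sulfate for 24 hours and grown 7 days at 30°C without adenine and uracil.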

Row | Substance | amyloid nucleation score
1 | MRAEVALFCGNSASVVCGAW | -0.221 ± 0.34
2 | MREELRGSETG | -0.685 ± 0.63
3 | MRFYAMGRDVYICCDGNKIL | 5.07 ± 0.066
4 | MRIHCVN | -0.529 ± 2.1
5 | MRISMSVSLLFSYSQYVKLE | -0.238 ± 0.9
6 | MRKVYNEWLKTNYYKHMNRV | 0.452 ± 0.51
7 | MRLHLGWNYEMHRKNRALSI | -0.312 ± 1.4
8 | MRLSQGGPLRLPRVTFSRYC | 0.027 ± 1.7
9 | MRLTNGSCHFVLF | -0.745 ± 1.7
10 | MRMISFKTVGALFVYCLSLG | 0.313 ± 0.49
11 | MRNYGILFPYLFYMSVSRVL | -0.067 ± 1.7
12 | MRQAGACNLRQSHVEQVCQQ | 0.135 ± 0.38
13 | MRSFAFWNYVFGRGMFPVFW | -0.272 ± 0.41
14 | MRTRWSIIMDVRYDNSV | 1.55 ± 0.21
15 | MSAIVSHYLVHCKFQSGNSH | 3.63 ± 0.12
16 | MSLNRDNDYSKLLFGSKVSQ | 0.477 ± 0.43
17 | MSLPYVICQQDR | -0.794 ± 1.4
18 | MSLSAVSNMVLMKGVGMR | -0.73 ± 0.93
19 | MSMDWICVTTYKAWSARLER | 0.689 ± 0.26
20 | MSNRISLQQLDRCQDDFMA | 0.034 ± 0.38
21 | MSSHVTHAS | 0.495 ± 1
22 | MSSLQG | -0.246 ± 1.1
23 | MSSSKGVVYDCFCSMWWLLP | 0.018 ± 0.73
24 | MSYCFF | 0.022 ± 0.55
25 | MTIQVTIGNYLGLVYFFPLS | 1.05 ± 0.97

Row | Substance | amyloid nucleation score
26 | MTMAFRKLFSVVRILMNMRL | 0.059 ± 0.3
27 | MTMKLFRQD | -0.049 ± 1.1
28 | MTPEAL | -0.063 ± 0.43
29 | MVDSVMD | -0.21 ± 0.79
30 | MVDSYWGWCAMK | 1.22 ± 0.61
31 | MVGDARFYAANSG | 1.14 ± 0.79
32 | MVGVLVKVREKAVMGPGQFG | 0.804 ± 0.29
33 | MVHMCWLTME | 0.454 ± 0.25
34 | MVKYPVTKNSSLPCSTRLTF | 1.01 ± 0.47
35 | MVLRHRKCLSAFPWAFHAPY | 1.49 ± 0.85
36 | MVNWEARQ | 0.862 ± 0.64
37 | MVRCNYRRRVGGDT | 0.905 ± 0.69
38 | MVRWFWVVGHQVFTYVRLWR | -0.076 ± 0.74
39 | MVSSCWICRALKAYVLQPWV | 0.108 ± 0.72
40 | MWFRTAST | 6.339 ± 0.047
41 | MWGFWTFFDGLAYPFVMHKT | 0.054 ± 0.53
42 | MWLKSNNWRNKADDLQGKVD | 0.523 ± 0.58
43 | MWTNWDVLPELDGTPRALLW | -0.501 ± 0.99
44 | MYASRNNFNSFTGYRYSSVS | -0.077 ± 0.21
45 | MYCITDEVNRYKCCKTGKEF | 0.634 ± 0.32
46 | MYCWY | inactive
47 | MYETWFTFRWKLTDI | -0.007 ± 0.39
48 | MYGLLEDERTVCQWKMICVV | -0.157 ± 0.69
49 | MYISYLYFCYKRSMYFG | 0.718 ± 1.1
50 | MYLCVRLGSIKYFSGVLWS | 0.056 ± 1.4

Row | Substance | amyloid nucleation score
51 | MYMIWEQGKPCSILDTHTVT | 0.598 ± 0.26
52 | MYVFRVLASSVWKSMMLFDL | 0.146 ± 0.23
53 | MYWESSSHEHVSEKPVRLIL | 1.07 ± 0.84
54 | NADDISVRTGNTQESLSW | 0.275 ± 1.2
55 | NADVTCVISGLRKTYCVSDD | 0.577 ± 0.64
56 | NAPLEWSSGHASQIVLGHVT | -0.177 ± 0.69
57 | NATNLENQKFTEDALKSPGW | -0.037 ± 0.71
58 | NAVSIRGLRVDRQN | 0.112 ± 0.55
59 | NCAFVAS | -0.019 ± 0.34
60 | NCGGRVSG | 8.076 ± 0.06
61 | NCIVFVSPASTKDCKWGAAS | 1.66 ± 0.35
62 | NCLRNWHKFI | -0.845 ± 0.7
63 | NCRGKREMGRKSSRSLVHGW | -0.039 ± 0.49
64 | NCYMT | 0.386 ± 0.31
65 | NDACYWEFCYADKLYFEWWF | 1.04 ± 0.44
66 | NDCKSQRSRNSMGCQ | inactive
67 | NDDRFSLLCGRGRSGLSEWC | inactive
68 | NDDVSVSVSWPDMEVRWK | -0.179 ± 0.29
69 | NDRKYLCMMRILMSNRRVLQ | 0.553 ± 0.3
70 | NDVPLLWVISASCG | 1.02 ± 0.44
71 | NDYFY | -0.598 ± 1.4
72 | NEIYKTA | -1.12 ± 2.7
73 | NESRM | 1.08 ± 0.58
74 | NFCLWHNWYVMSVLERGD | 7.893 ± 0.071
75 | NFDSELFSPLMISDVREFTK | 1.62 ± 0.47

Row | Substance | amyloid nucleation score
76 | NFFDLLYFL | 0.175 ± 0.82
77 | NFHDEV | -1.22 ± 1.5
78 | NFKVQREKGF | inactive
79 | NFRGLRLSKIYLLHHAGNLW | 0.533 ± 0.47
80 | NFSHHSIYGHVPRPEEQNPM | 0.481 ± 1
81 | NFVARSLLPNILAGLRGTGC | -0.139 ± 0.59
82 | NFVFGHNGGACSYVGLLM | 1 ± 0.7
83 | NFVGFL | -0.33 ± 0.58
84 | NGADTSSQAF | -0.182 ± 1.3
85 | NGCLITSWDYCSCRAVYQLT | -0.602 ± 0.39
86 | NGHSVASSVDAVMLCRYRGK | 0.688 ± 0.69
87 | NGNEYMVHRHADKWNTGQYR | 5.83 ± 0.084
88 | NGQRDIEYLSLFSPVGTMNS | -0.518 ± 0.43
89 | NGSADNIIVYGYDANLRWVR | 0.262 ± 0.43
90 | NGSVTNNKNHPFVDYGVRHE | -0.468 ± 0.36
91 | NGSYCKQILSRYVCRGECLH | -1.85 ± 1.4
92 | NGTFVLDVRIRSRRSERPLG | 4.09 ± 0.06
93 | NGVLYFD | 0.371 ± 0.57
94 | NGYEMVQVLTSFMAAMGVFW | 0.256 ± 0.84
95 | NHSGSFKCGRIVSRYDD | -1.37 ± 0.95
96 | NICDFLIYVYYLRSVCDI | -0.358 ± 0.41
97 | NIGIRI | 0.095 ± 0.39
98 | NIISEN | inactive
99 | NIVNYFSCLKALNKFLHKMG | 0.609 ± 0.26
100 | NIWVLTYCLVYLSWSNHVF | -0.709 ± 0.78

Row | Substance | amyloid nucleation score
101 | NKDYMVVLTDFS | -0.326 ± 0.2
102 | NKIGRGVVCSRLWTCCSCFM | 8.554 ± 0.079
103 | NKIQQGYMSPYCNHSVFVSF | -0.296 ± 0.65
104 | NKNCLELCLTHGMLNQL | 0.25 ± 0.36
105 | NLENLCLMILRVPVSDVMQP | inactive
106 | NLMEKRSLRAIRWIVRSWAG | 0.839 ± 0.62
107 | NLMYAGIRLKGEICTNQVSF | 0.371 ± 0.16
108 | NLSSTEYAFNISDGEKRHED | 0.186 ± 0.9
109 | NLSTCDE | 1.03 ± 0.58
110 | NLSVY | -0.232 ± 0.74
111 | NLTDTKLRDNGKNPALADQV | -0.226 ± 0.26
112 | NLVVQCADGVILSFWDHMVG | 2.43 ± 0.32
113 | NLVYTTDT | 0.467 ± 0.41
114 | NLWLPAWCGLYQCNTGHSGY | 7.996 ± 0.043
115 | NMEITYLSVFVAVYVHLHFF | -0.728 ± 0.88
116 | NMGNLFNICETGNLL | 0.296 ± 0.66
117 | NMGTVMYGVIQACRAHVNVV | 0.22 ± 0.45
118 | NMSINI | inactive
119 | NMVGFILLGY | -0.179 ± 0.29
120 | NNCAFYSLRWRKLWLGGMHV | 8.364 ± 0.056
121 | NNCYLDTSLSNLIRDGSSPV | -0.453 ± 0.64
122 | NNFSSNWWLELWYRYFVYPI | 0.666 ± 0.75
123 | NNMSIWGMTVTEYLFITNMN | 0.643 ± 0.53
124 | NNRKYLGRNMAANWGAWFKR | -0.395 ± 0.36
125 | NPGAYKYHSLSYTSRGGMFV | 0.486 ± 0.38

Row | Substance | amyloid nucleation score
126 | NPGEWYNSYRSNGEGMRLYE | -0.288 ± 0.88
127 | NPLVFRN | -0.122 ± 0.61
128 | NPWVWTLSIEQGRNE | 0.074 ± 0.34
129 | NRAMQVFPI | inactive
130 | NRHEILHIVG | 1.67 ± 0.63
131 | NRHVSRRRHSEISLVRKGGA | -0.313 ± 0.33
132 | NRNTRLMWNDTVWGIRAARY | -0.279 ± 0.85
133 | NRPHTTYFFSFKSQF | 5.61 ± 0.063
134 | NRSWYIRVLHRATSVSLKSF | -0.226 ± 0.39
135 | NRYPTLFWCVRNRVWECLRV | 0.392 ± 0.46
136 | NRYQRYVPTIEMEPNSSYGN | inactive
137 | NSCRMPYSGV | inactive
138 | NSCWVEKSNTV | 0.043 ± 0.62
139 | NSGNICSVGCGL | 3.09 ± 0.2
140 | NSHLVFMGMLFLRISDDFVR | -0.083 ± 1.4
141 | NSIHFCGGGRLHSAKLDVSS | inactive
142 | NSIVVTT | 0.114 ± 0.54
143 | NSIVWSMC | 0.409 ± 0.42
144 | NSLCSP | -1.31 ± 1.9
145 | NSMANREYGYIELDWV | inactive
146 | NSRGVSSKYCFGKRIPDGGL | 0.117 ± 0.3
147 | NSVHWTASGSDSIPTAIESR | 1.58 ± 0.2
148 | NSVISMAPYLFTCIENVKSK | 0.315 ± 0.42
149 | NSVIWRMG | 1.42 ± 0.3
150 | NSVWHGLYCSQQRSLRTTRL | 0.116 ± 0.29

Row | Substance | amyloid nucleation score
151 | NSWQLFYLCSQLIRKSSTLC | 0.029 ± 0.37
152 | NTDSLLFNLISLMRNRERFK | 0.351 ± 0.54
153 | NTIRFAHLLV | -0.318 ± 0.35
154 | NTTHDGLRCEIRVWSENRRR | 1.39 ± 0.3
155 | NVCLLGRLRFYVVLTGIRDL | -0.34 ± 0.74
156 | NVFCPVHENVSRLLQRHTRL | 1.1 ± 0.53
157 | NVGSLVHAAW | -0.613 ± 1.3
158 | NVGVMGFISASVWLFCWGIF | -0.783 ± 0.33
159 | NVHSYRSLRLDELVMKSMCE | 2.66 ± 0.2
160 | NVNCNRYSWMGDHSCEGRQP | -0.128 ± 0.57
161 | NVNEDRPAGALVLEFLNRTL | 1.47 ± 0.69
162 | NVNHSPSGMARRGSHRYKNS | -0.218 ± 0.34
163 | NVSSCDW | -1.22 ± 0.71
164 | NVSYRSYRFVHWVNLVGSMA | inactive
165 | NVWIYPDSMKSNQTDLG | 1.26 ± 0.74
166 | NWGAISISDRGPQKTDTAWT | -0.048 ± 0.48
167 | NWGVIVMFTYYRSSSGNLAC | 1.35 ± 0.45
168 | NWGVSNRVVWGRVPMLSVPH | -0.284 ± 0.98
169 | NWHAVNCRSPST | 1.07 ± 0.51
170 | NWTVFLATNGF | -0.095 ± 0.85
171 | NWVLGVAYRRLRHKCSMYRV | 0.387 ± 0.67
172 | NWVVFRMRHRLQTSFWGCGE | 0.123 ± 0.57
173 | NYEQYLGCSNTEERSSSCTL | -0.286 ± 1.2
174 | NYNQGRGYRSVSSNIIEGDK | 1.74 ± 0.49
